The values that follow come from the DeepSol protein solubility set.

This series can be described thus: soluble on expression in E. coli; label from the status in PepcDB or PDB records.
Take “MGSDKIHHHHHHMAAIGSYNITLLNRESIKENAAYPIADNVEVIALSGSLFEFYKKLKKQISSNNYDVVVVHNMGKLSLLCAFVPNIKKLVVLEHVSFISRPKKIQILSKFLYRNIDQVVTLTQNDKEQFDKFHSNVIVIPNFSPFSIASQPQNNGKQIVTIGRLTDQKNYIHLLQAWKKIYQSIPDWQLNIYGEGEQEEMLQDYIKQQSLKNVSLKGSTSNVKEVYEQSSFFVMSSKYEGLPMVLIEAQSFGLPIVSYNCPYGPSDVIRDSKNGFLVEDQNVDELAAAVLKVALSPQLLEQFSQSSLLNAKKYQPEQILKIWIEKVLEG”: the “soluble on expression in E. coli” value is “not soluble”.
Take “MQTQEVVIKPTLKVLLKSDSQNLEEVVVTAMGIKRSEKSLGYAVSSVKGDEITKARESNVLNSLSGKIAGLQIAQSSGTVGGSSSIQIRGASSIGTVSSPLFIIDGLPIDNGSYNPDRTNGIVDVGNRAGDINSDDIESINVLKGAAATALYGARAKDGAIVITTKKGKKNSPVFVTVNSSTRFENVLKLPDFQNEYAQGSYGVYNVKMLNGWGPKISSVQDQQFTDYKGDKVTLKANPDNVKDFYETGMSYINNVSVAGGGEKADFRLSFTSTNQTGVVPGSDYNKYAFSVNAGMNFTSNFTGRISAQYIRSDSEGRPAQGANDSNLLIPLINGLPRTIDIHDIKQNWIDENGKQVTLDPEGKSNNPYWIINKNKFTNNLDRMIGNITLTYKPIEGLTITNNAGTDFYTEGRRKLYAKGTVGALNGKFQTWNLYKRIINNDLMVSYEKTFANDYHFKAMVGHNLYQEEWKNENVQAQNLVVDGLYTYTNAKSTTPVNYYEKKRLVGLYGDISLGYKDMLFINVTGRNDWSSTLPINNRSYFYPSISGSFIFTELMENKDILNYGKIRLSYANVGSDEDPYNLAFKYTPASTYFLQYLGNVNTFPHMGLVGFTGPRVLPNENLKPQNQSSFEVGADLRFFGGKIRLDMTYYSNITKNQIVSIDVPLSTGYFANNINAGKIANKGVEVTLGLTPVETRNFKWDLDATFASNKQTVEELAEGLDEYTLTSGLSGLQIKAAKGDSFGLYGTAWKRDDQGNYVINSKTGLRETVNNVRLGDVYPDFTMGINNTLTYKGLTFSFLIDIRHGGSLYSETVANLRSSGLAAETVAHREDASFIEPGVILQDDGTYRPNDVPVKSMQDYWQHVANSSNNEGNIYNASFVKLREVQLSYSFPRKWFKSFFVKSLDLGFEARNLWIIKDHVPHIDPEANFFGPSQIGGGVEFNSIPSTRSFGFNLRLTL”: the “soluble on expression in E. coli” value was “not soluble”.
In the case of “MGHHHHHHSHMTAPFFPRILGAVAFLNQETEPLTMNLQHHFLIAMPALQDPIFRRSVVYICEHNTNGAMGIIVNKPLENLKIEGILEKLKITPEPRDESIRLDKPVMLGGPLAEDRGFILHTPPSNFASSIRISDNTVMTTSRDVLETLGTDKQPSDVLVALGYASWEKGQLEQEILDNAWLTAPADLNILFKTPIADRWREAAKLIGVDILTMPGVAGHA” it was “soluble”; in that of “MERRLGVRAWVKENRGSFQPPVCNKLMHQEQLKVMFVGGPNTRKDYHIEEGEEVFYQLEGDMVLRVLEQGKHRDVVIRQGEIFLLPARVPHSPQRFANTVGLVVERRRLETELDGLRYYVGDTMDVLFEKWFYCKDLGTQLAPIIQEFFSSEQYRTGKPIPDQLLKEPPFPLSTRSIMEPMSLDAWLDSHHRELQAGTPLSLFGDTYETQVIAYGQGSSEGLRQNVDVWLWQLEGSSVVTMGGRRLSLAPDDSLLVLAGTSYAWERTQGSVALSVTQDPACKKPLGLEHHHHHH”, “not soluble”; in that of “MGSDKIHHHHHHMIMINKTKRLMVSRQVKIPRKTYFWGPTPNPGMHPKDQSVTLLSIIRDYLKLSDKEREAARILANGLVKVDGKTVREKKFAVGFMDVIEINGESYRVVYNDQGALVLMKETKERASMKLLKVRSKVIAPGNRIQLGTHDGRTFITDDKSKKVGDVWAVSVPDMKISEIIKMQPGNKAYITAGSHVNQTGTISKIEAKEGSSANLVHFQEGFSTIKDHVFMIGSSKFSFVLSPEEVIP”, “not soluble”.
In the case of “MKPLLTAMFGATLATASTLASAEVAVIMNAGASAAPSQAEVANIFLGKDTSLKGLDQKGWNPTKERFYSALTNKNESQLKSYWSGLVFTGKGQPLQSVDDDAAVIAKVGSEANAIGYIDTSAVNDKVKVLFTLP” it was “not soluble”.
